According to a protein production outcome set (Wang et al. 2014):

Test: label from the status in PepcDB records

Sequence	protein production
MKISAVVVTFNRKKLLLECLNALRNQTYPLDAIFIIDGPSTDGTPEALLECGYIKELPPKKGNWSWETKNVIYSPINNKPIKVYYVRLYKDVGGSGGFYEGVKRAYEEGYNWIWLMDDDAEPREDALEKLIRYMNLPGVIALAPTVIRPTGEISKPHRGILCFKKIFPMIQIPLDESKYKSNQPVQIDFVSFVGPLIKRDAIKIVGFPKKEFFIHHDDVEYSIRLRTVGKIYLIPDSVIIHKENIKKTSLIKKRFLGKTIYRIPYNKLWKTYYGTRNLTYLGRIYSKSKFKFYFKLLKRWAVSVGAIILFDDHKIKRIQFITSAYLDGLRGKFDNEKPKRILYGGKKELEHHHHHH	not failed
MIILIWMVIMRHVFRLNLWFVFLATFLFTPYLYAEPIKEPSRPKIALVLAGGGAKGAAHIGVLKALEELNIPIDIITGTSMGAYVGGLYATGKSASEIEAYLHTVDWYSGYQDEVGREEKNSRDKKYEDRFAINPSLGIRKEGVKSPKSAIQGQNMLKILRETSGNPVSVASFDDFPIRYRSVATDIVSMEEVVIDHGLLVDAMMASMSVPGALPPYEFEDKLLIDGGVTNNMPVELAKEMGADIVIAVDISSNYMTKEQIGSLFDVASQLTNFMVKRSTQEQAEFLTDKDILLQPRVGDIETTDFSSMPRAYQEGYDTVMTLKSRLQSLAVAPNEYAQYQNKIKQQSANVRLAQGAIIDKVEVENRSHYESDKLERFIQFEQGTLLSSDYIEDKIHALYATNRFETITYLVEEDNNENVLKVTAKEKEWGPNYLNFRFFLEEDFDTHSQYGLGASINFTDLNDYGAELRTNVELGTDKIFDATIHYPFYLNHHFFVQSNMMYSDKKRSISTSSLEDKEPNSSMSFYPVNLRDFTVDALFGVEATKDQQLKTGILYARGSHELTGLSAYGRTEYERLGATLEYNFDSLDSISLPTHGSLINARYLYAFDKVNSRDVEGSDHSEQYIDEFTAEALFARSIARHTFISSAEYGITNSDDYLVPVNPIELGGFNHLSGLPRNSLIGANKIYGRLTYRYRWFENDLGMFKTAVYLGASAEYGGLWSMKSTDISSAPLIFSGSLFGGIDTPIGPIILSYGRAENGLDSVYLIVGNVE	failed
MELAVHDATEDGAGYATAASSWVVVEPEFVVDVTDIRSFVQCPRLYYLNKLSGLPLKYPVTKGTIVHEVFGDLLRGRDLEASVAQRVDEAGLELGLLGRSRAEVEADVRDNASAIEGWLQQGRLTDEDEWRSEYTLVSERFGIKGRCDAIRRGMPVELKTGKNTNREPRFHDKVQAACYALMLDEHGVPADTGTLLYTKNAAVDRSEASGDLSPAKEFSIGRGFLEFVVRERNHLAALEASDGPPTGYEADAKCDYCFEQDTCMVVSGRLDQESKAGRIGDPVPAEERAYFDELYDAIEAERGAIHDEYRKLWEQSPDERAADDRAVVGLSPAEQTELPDGRWRLTATRPGSAASKIREGDRVLASDGDPVAGRAEMARVERLDADRVEVTTDEPVSLCRLDVYPSELSVDRMLTALHDAVLKSDQRRTDLLFDRASPRFEGGDHDLIPNNDAQNAAVNRALNAEDFALVHGPPGTGKTYTIATLVQAFVARGDRVLVSAFTNRAVDNALDALRQQGHEDIVRVGTETGVRADMQDLRLDRSGDPGERAAALRSAPVVAATTATCGSRILRELEFDVVLVDEASQLTEPDTLAAINRGARFVLVGDHEQLPPVVRSGGRLSKSLFERLHETYPEASVMLDQQYRMSQRIQAFSSREFYDGQLRPASSEVAGQRLTDVGVDPGGAVHGGVTFYDVPGTDDAHVDPAEADRVADVVTAYVDAGLDPGEIGVIAPFRAQVAEIGRRTPAGVAVDTVDRFQGSSKEVIVVSFVARGTLEGPIFEDHRRVNVALSRAKKSLVLVGDERALRSEPLYDRMIDWADMELEHHHHHH	failed
MLKVSVITACFNSEKTIEDTILSVLHQTYKNIEYIIIDGASTDSTLEIIQKHRDKIACVMSEKDEGIYDAMNKGIKRSSGDIIALLNSDDFYKDEFVVEKVVHEFERKNCDSVYADLVFVKPDCLEKVVRYYEIGEFNPKTLLYGVVPAHPTLFVKKAIYERYGLYKTDYKISADFEMIIRLFVVQKISFSYLKEVLVVMRTGGVSASGFKSLLLRNKENIRACKENGIQANVFSMLLKYPRKIMGLFKRGKGGLKRND	failed
YSVTVKWGKEKFEGVELNTDEPPMVFKAQLFALTGVQPARQKVMVKGGTLKDDDWGNIKMKNGMTVLMMGSADALPEEPSAKT	not failed
MASKKPDKTYEEMVKEVERLKLENKTLKQKVKSSGAVSSDDSILTAAKRESIIVSSSRALGAVAMRKIEAKVRSRAAKAVTEQELTSLLQSLTLRVDVSMEELEHHHHHH	not failed
MDTNNNIEKEILALVKQNPKVSLIEYENYFSQLKYNPNASKSDIAFFYAPNQVLCTTITAKYGALLKEILSQNKVGMHLAHSVDVRIEVAPKIQINAQSNINYKAIKTSVKDSYTFENFVVGSCNNTVYEIAKKVAQSDTPPYNPVLFYGGTGLGKTHILNAIGNHALEKHKKVVLVTSEDFLTDFLKHLDNKTMDSFKAKYRHCDFFLLDDAQFLQGKPKLEEEFFHTFNELHANSKQIVLISDRSPKNIAGLEDRLKSRFEWGITAKVMPPDLETKLSIVKQKCQLNQITLPEEVMEYIAQHISDNIRQMEGAIIKISVNANLMNASIDLNLAKTVLEDLQKDHAEGSSLENILLAVAQSLNLKSSEIKVSSRQKNVALARKLVVYFARLYTPNPTLSLAQFLDLKDHSSISKMYSGVKKMLEEEKSPFVLSLREEIKNRLNELNDKKTAFNSSE	failed
MPKKGSRPDRPSRRCARMTSTVPALGTRSAEGSALQAVLLDMDGTLVDTEGFWWDVEAEVFAALGHPLDESWRHVVVGGPMARSAGFLIEATGADITLAELTVLLNDGFEARIGRTLPLMPGAARLLAELAAHEIPTALVSASHRRIIDRVLTSLGSQHFALTVAGDEVARTKPFPDPYLLAASGLGAEPARCAVIEDTATGVAAAEAAGCRVVAVPSVAPIAPAARRTVVTSLEEVDLPFLRGLMTEMR	failed
MSLSLYYKKIREQLGHELIFMPSVAAVIKNEQGELLFQYPGGEYWSLPAGAIEPGETPEEAVIREVWEETGLKVQVKKQKGVFGGKEFRYTYANGDKVEYIVVVFECEITSGKLKSIDGESLKLQYFSFSEKPPLALPYPDKIFLEGHHHHHH	not failed
MSASAVHSLWTTAADPISKIDAPKIEYGQLSPTLIVIGAALVGVLVEAFVPRKSRYYAQVFVSVVALAAAFAAVVALAAGGYGTTKAHIAAMGAIAVDGPALFLQGTILLAGLLGVFTFAERRLDPEVHGNRVDSFAAQAASVPGSDSEKAAVKAGFTTTEVFPLLLFAVGGMLIFPSANDLLTLFVALEVFSLPLYLLCAVARRKRLMSQEAAVKYFLLGAFASAFTLFGIALLYGYAGSMSYATIAQVVDGTVQNVDPALAGTMGNDALLLVGAAMLVMGLLFKVGAVPFHMWTPDVYQGAPTPVTGFMAAATKVAAFGALLRLLYVVLPGLRWDWRPVMWAVAIVTMLGGAIVAITQTDIKRLLAYSSIAHAGFILAGVIATTPDGVSSVLFYLGAYSFVTIGAFAVVTLVRDAGGEATHLSKWAGLGRRSPLVAAVFAVFLLAFAGIPLTSGFAGKFAVFKAAAEGGAAPLVVVGVISSAIAAFFYIRVIVLMFFSEPRPEGPTVAVPSPLTTTVIGVGVVVTLVLGVAPQYFLDLAG	failed
MAKILEGPAMKLFNKWGIPVPNYVVIMDPERLAQLGEANKWLRESKLVVKAHEAIGGRFKLGLVKLGLNLEEALEASREMIGRKIGTAVVRQVIVAEMLEHDEEYYVSIAGNRDGAELLLSTKGGVDIEDNWDTVKRLFIPMDETPSVERLTEVAAEAGFTGEVAERVAKIAARLILCFDNEDAQSIEINPLVIRKSDMRFAALDAVMNVDYDARFRHADWDFKPVSEIGRPYTEAEQQIMEIDARIKGSVKFVEVPGGEIALLTAGGGASVFYSDAVVARGGTIANYAEYSGDPPDWAVEALTETICRLPKIRHIIVGGAIANFTDVKATFSGIINGLRESRSKGYLQNVTIWVRRGGPNENQGLAAIRKLQDEGFDIHVYDRSMPMTDIVDLAMNS	failed
MKLKRKILALLMAALLAVSLAGCGQTSQAPANPPAAPEAGTPTERTVTDMAGRTVTLPAEVKTVGTFGSIGVLNAFVETLSAGERLANEGSPSFVKSPTWEKYQYQFTPHIKNLKPFQGADSELLMENILAAKPDVCLTMSADLTEQLEKQGLNVVQLSWTKTEDVKECITLLGEVLNQQEVAADYLKYFDDMLAKAADLTKDIKDADKKTVVYGNVSKFSQPHVIAEWWIDKAGGISVTSEAMTKANKESLTYTLEDLLKWNPDVMFVASAAEKKEVLADARLGEITAVKNGAIYIVPRIAHVWGNRTTEQPLTIMWAMNKLYPEIVTDSQLAEDISYFYSHFFKYDFNADQLKEIMGK	failed
MRTVDVFHPQAASNSAAVHASPQTTVAFSPDGTHYASAGYDGRVVLWDRSGTSPRWVGRHSRLVNGVRFSPSGRLLASGSADKTCRIWEVATGRQVQLLARQPDDLNALAWLDENRLVTVSQDGTGRIWDIRTGVLQEGVIFHADHCMSVDAAPTGVLASCGEDATIRLWDTDGSLLRDLPQAGHAEMCRWSPDGTLLAASCDDGFVHIVRTDGELVTKVGPYTAAVKSVAWSQDGSRIVIGAYDSTIALWDIADCRPLVRWYGAHLWPRAVDWSADGRTVVAGTFSARPAVIDVPEIPADALPDEVREITLEASVPTHGVNHVSAAGEVLAAGGDNGTIRVWSHRGATATEVPVGNGSLVNTVAVSAELPGLVAYGSFSGRVGVADAVTGRDVAAVQREHPVNRAAWSPDGRRLAVADYEGGLDLYAWTGRELVPGVHYAGHDGAIKDVSWVDADRLVTYSTDRRAHLITTEGTLIRSFGGHGELINGGSVTTVAGRALLATVSRDRTSRIYDLETGELLQVLVGHDESAKCAAWHPGGEPLLVTGSYDFTGRLWVLDPKTLAPLHQHVLEGHGSAVSAVCWLGDDAVTASWDSKVFTWTPDADPARPPAAAEPATDWRVREGSR	failed
SEDINRNPLLPTKEDEKMDGVIYGAYLPNLEKSVIPIGTASESTEPVNRYQIGVNLAGDAWAGYMSPRDNKFNGSKNFTNYFMYENWVNYVYSFMVTDVYSPWMQIKRISQDEGTRNDEIYALAQIIKIAALHRTTDMFGPIPYSQVGKGSFKVAYDSQESVYRSFLKELEEAVQTLDDYSNKSKEVLPAFDIVYNGDVNKWMRFANSLMLRLAIRVRFADAGLAKEYAEKAVKHPAGLINSKELAAQMGKGAGLQMKNPLKVINEEYNDTRMGATIYSYLAGYNDARAAVYFVKNNGFKAVRCGIAKSGDAYNGFTRPNVHEDDPLYWMKASEVCFLKAEGALAGFDMGGSAGDFYNAGIRMSFSENGLDNSSAETYLKDSTRKPANYTDTSNGELSANAPSSITIRWENGATEEEKLERIITQKYLAIFPNGQEAWTEWRRTGYPRQIVVAENKTNSAVLIGNGYDLGGVRRLPYPRTEYEQNGENLHNAISQYLGGVDNAATKVWWDKKSK	not failed
MYGIQTSASLPLTRPQALETQAAAPQSDAPDASAGQTRAAPQGSAAPALAAARAKADELGQAAREVRASVERQTAYETRLAAQRSAAAFSGGEPPQARREAPGAELDEARNAQTVSARLFEGNLKGVAQSGHAMSAEQKQALQSGLDDVFADAPPQARSAGAPMLYSANAAAGQGMADSDLWDMISDQIGKIKDNYLGVYENVVGQYTDFYKAFSDILSQMANWIKPGGDGNKVKLNVDALKAALEKLKKDFSLGDNLDNKKAVLFPAQSKDGGIQGGSESDARKWAKEMGLPDAPPPGFSCVQKAADGNWVVVVDMTPIDTMIRDVGALGSGTELELDNAKFQAWQSGFKAQEENLKNTLQTLTQKYSNANSLFDNLVKVLSSTISSCLETAKSFLQILEHHHHHH	not failed
